The first assay concerns the target T1, Anti-CD28 Fab (SEQ ID NOs: 202, 203).
T1 construct: biotinylated and captured on neutravidin coated plates in the phage ELISA
The assay is described as follows: phage ELISA, Fab on plate, CD28 antigen as competitor. A general note: In an ELISA, binding on a coated surface is turned into a signal by an enzyme label.
T1 sequence (VH, as listed by the source, chain 1 of 2): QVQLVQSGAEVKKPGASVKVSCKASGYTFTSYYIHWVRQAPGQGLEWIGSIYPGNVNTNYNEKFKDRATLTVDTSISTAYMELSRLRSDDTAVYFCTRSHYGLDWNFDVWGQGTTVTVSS
T1 sequence (VL, as listed by the source, chain 2 of 2): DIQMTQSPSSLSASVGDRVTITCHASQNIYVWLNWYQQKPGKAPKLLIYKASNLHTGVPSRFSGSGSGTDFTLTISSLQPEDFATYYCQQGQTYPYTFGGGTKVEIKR
Procedure: After panning, phage infected bacteria were plated out and colonies picked into 96 well blocks. Clonal phage was then amplified and separated from bacterial cells via centrifugation.
Clonal phage were harvested as crude supernatants and screened via standard ELISAs. […] Prior to the addition of clonal phage, wells were incubated with blocking buffer and CD28 antigen or blocking buffer alone. Without washing or aspirating, clonal phage supernatants were then added to the wells and incubated for a short time. Wells were then washed followed by detection of bound phage using a horse radish conjugated anti-M13 antibody. Clonal phage of interest were then sent for sequence analysis.
As to YCDGHAEEYRMKCL [Phage-678], the “Anti-CD28 Fab signal in the presence of CD28” value (“Anti-CD28 Fab signal” below) came to 0.08.

As for YCDGHIPEYMTKCL [Phage-661], the “Anti-CD28 Fab signal” value was 0.06.

For YCDGHLPVYMTKCL [Phage-679], the “Anti-CD28 Fab signal” value is 0.07.

As to YCSEHQIIFIQKCL [Phage-654], the “Anti-CD28 Fab signal” value worked out at 0.08.

As to YCDGHAPQYMRKCL [Phage-651], the “Anti-CD28 Fab signal” value was found to be 0.08.

Regarding YCEGHLPMYMQKCL [Phage-660], the “Anti-CD28 Fab signal” value is 0.08.

YCEGHLPMYMTKCL [Phage-686]: the “Anti-CD28 Fab signal” value was 0.06.

In the case of YCAGHLPMYMQKCL [Phage-653], the “Anti-CD28 Fab signal” value came to 0.08.

For the molecule YCDGHSSVYMLKCL [Phage-680], the “Anti-CD28 Fab signal” value was found to be 0.06.

Consider YCDGHLPLYMQKCF [Phage-652], for which the “Anti-CD28 Fab signal” value is 0.1.

For the molecule YCEGHSAVYMSKCL [Phage-663], the “Anti-CD28 Fab signal” value was 0.06.

Take YCDGHAPQYMAKCI [Phage-665]: the “Anti-CD28 Fab signal” value amounted to 0.06.

YCEGHSSQWMWKCL [Phage-674]: the “Anti-CD28 Fab signal” value worked out at 0.09.

YCQGHSVEHMAKCL [Phage-666]: the “Anti-CD28 Fab signal” value turned out to be 0.06.

Consider YCEGHHRIYMQKCL [Phage-681], for which the “Anti-CD28 Fab signal” value is 0.07.

Take YCDGHSPAYLQKCL [Phage-673]: the “Anti-CD28 Fab signal” value was determined as 0.06.

As to YCAGHALEYMGKCL [Phage-657], the “Anti-CD28 Fab signal” value stood at 0.06.

Turning to YCEGHSTEYMAKCL [Phage-676], the “Anti-CD28 Fab signal” value was found to be 0.06.

As to YCEGHSEEYMAKCL [Phage-682], the “Anti-CD28 Fab signal” value worked out at 0.07.

For the molecule YCDGHLEVYMDKCL [Phage-672], the “Anti-CD28 Fab signal” value stood at 0.07.

In the case of YCEGHLEIYLAKCL [Phage-655], the “Anti-CD28 Fab signal” value was 0.07.

Regarding YCEGHLPAYMWKCL [Phage-659], the “Anti-CD28 Fab signal” value is 0.08.

As to YCAGHASEYMAKCL [Phage-650], the “Anti-CD28 Fab signal” value came out at 0.08.

Regarding YCEGHFPLYMNKCL [Phage-675], the “Anti-CD28 Fab signal” value turned out to be 0.08.

As to YCEGHLVQYMQKCL [Phage-669], the “Anti-CD28 Fab signal” value came to 0.06.

On to YCEGHDVQYMQKCL [Phage-749], for which the “Anti-CD28 Fab signal” value was 0.08.

For YCAGHMPIYMTKCL [Phage-667], the “Anti-CD28 Fab signal” value was 0.08.

YCEGHLPEYMIKCL [Phage-658]: the “Anti-CD28 Fab signal” value was found to be 0.06.

Turning to YCEGHSLEYMMKCV [Phage-664], the “Anti-CD28 Fab signal” value amounted to 0.07.

Consider YCDGHRAEYMLKCL [Phage-668], for which the “Anti-CD28 Fab signal” value is 0.08.

For YCEGHLPRYMLKCL [Phage-671], the “Anti-CD28 Fab signal” value is 0.3.

Regarding YCEGHQPAYMEKCL [Phage-677], the “Anti-CD28 Fab signal” value was determined as 0.06.

Turning to YCMGHLPIYMEKCL [Phage-670], the “Anti-CD28 Fab signal” value amounted to 0.05.

Another assay has the same target. As to the kind of experiment: phage ELISA, Fab on plate.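 Further: crude clonal phage supernatants added to wells pretreated with blocking buffer with or without CD28 antigen, then bound phage read out via HRP-linked anti-M13 antibody.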
Turning to YCDGHAEEYRMKCL [Phage-678], the “Anti-CD28 Fab (SEQ ID NOs: 202, 203) signal” value was determined as 1.27.

Consider YCDGHIPEYMTKCL [Phage-661], for which the “Anti-CD28 Fab (SEQ ID NOs: 202, 203) signal” value amounted to 1.31.

On to YCDGHLPVYMTKCL [Phage-679], for which the “Anti-CD28 Fab (SEQ ID NOs: 202, 203) signal” value came out at 1.27.

As for YCSEHQIIFIQKCL [Phage-654], the “Anti-CD28 Fab (SEQ ID NOs: 202, 203) signal” value amounted to 1.32.

With YCDGHAPQYMRKCL [Phage-651], the “Anti-CD28 Fab (SEQ ID NOs: 202, 203) signal” value turned out to be 1.33.

In the case of YCEGHLPMYMQKCL [Phage-660], the “Anti-CD28 Fab (SEQ ID NOs: 202, 203) signal” value amounted to 1.31.

With YCEGHLPMYMTKCL [Phage-686], the “Anti-CD28 Fab (SEQ ID NOs: 202, 203) signal” value turned out to be 1.25.

Regarding YCAGHLPMYMQKCL [Phage-653], the “Anti-CD28 Fab (SEQ ID NOs: 202, 203) signal” value amounted to 1.33.

As for YCDGHSSVYMLKCL [Phage-680], the “Anti-CD28 Fab (SEQ ID NOs: 202, 203) signal” value came out at 1.26.

Take YCDGHLPLYMQKCF [Phage-652]: the “Anti-CD28 Fab (SEQ ID NOs: 202, 203) signal” value was 1.33.

With YCEGHSAVYMSKCL [Phage-663], the “Anti-CD28 Fab (SEQ ID NOs: 202, 203) signal” value is 1.31.

Take YCDGHAPQYMAKCI [Phage-665]: the “Anti-CD28 Fab (SEQ ID NOs: 202, 203) signal” value came out at 1.3.

With YCEGHSSQWMWKCL [Phage-674], the “Anti-CD28 Fab (SEQ ID NOs: 202, 203) signal” value was found to be 1.27.

For YCQGHSVEHMAKCL [Phage-666], the “Anti-CD28 Fab (SEQ ID NOs: 202, 203) signal” value was found to be 1.3.

In the case of YCEGHHRIYMQKCL [Phage-681], the “Anti-CD28 Fab (SEQ ID NOs: 202, 203) signal” value came out at 1.26.

Turning to YCDGHSPAYLQKCL [Phage-673], the “Anti-CD28 Fab (SEQ ID NOs: 202, 203) signal” value was found to be 1.28.

For YCAGHALEYMGKCL [Phage-657], the “Anti-CD28 Fab (SEQ ID NOs: 202, 203) signal” value is 1.32.

On to YCEGHSTEYMAKCL [Phage-676], for which the “Anti-CD28 Fab (SEQ ID NOs: 202, 203) signal” value turned out to be 1.27.

Consider YCEGHSEEYMAKCL [Phage-682], for which the “Anti-CD28 Fab (SEQ ID NOs: 202, 203) signal” value was determined as 1.26.

As for YCDGHLEVYMDKCL [Phage-672], the “Anti-CD28 Fab (SEQ ID NOs: 202, 203) signal” value was determined as 1.28.

YCEGHLEIYLAKCL [Phage-655]: the “Anti-CD28 Fab (SEQ ID NOs: 202, 203) signal” value worked out at 1.32.

Take YCEGHLPAYMWKCL [Phage-659]: the “Anti-CD28 Fab (SEQ ID NOs: 202, 203) signal” value amounted to 1.31.

Turning to YCAGHASEYMAKCL [Phage-650], the “Anti-CD28 Fab (SEQ ID NOs: 202, 203) signal” value is 1.33.

Take YCEGHFPLYMNKCL [Phage-675]: the “Anti-CD28 Fab (SEQ ID NOs: 202, 203) signal” value is 1.27.

Consider YCEGHLVQYMQKCL [Phage-669], for which the “Anti-CD28 Fab (SEQ ID NOs: 202, 203) signal” value was found to be 1.28.

Regarding YCEGHDVQYMQKCL [Phage-749], the “Anti-CD28 Fab (SEQ ID NOs: 202, 203) signal” value is 1.06.

With YCAGHMPIYMTKCL [Phage-667], the “Anti-CD28 Fab (SEQ ID NOs: 202, 203) signal” value was found to be 1.3.

For YCEGHLPEYMIKCL [Phage-658], the “Anti-CD28 Fab (SEQ ID NOs: 202, 203) signal” value was determined as 1.32.

For the molecule YCEGHSLEYMMKCV [Phage-664], the “Anti-CD28 Fab (SEQ ID NOs: 202, 203) signal” value was found to be 1.3.

YCDGHRAEYMLKCL [Phage-668]: the “Anti-CD28 Fab (SEQ ID NOs: 202, 203) signal” value is 1.29.

Regarding YCEGHLPRYMLKCL [Phage-671], the “Anti-CD28 Fab (SEQ ID NOs: 202, 203) signal” value is 1.28.

Take YCEGHQPAYMEKCL [Phage-677]: the “Anti-CD28 Fab (SEQ ID NOs: 202, 203) signal” value was determined as 1.27.

Regarding YCMGHLPIYMEKCL [Phage-670], the “Anti-CD28 Fab (SEQ ID NOs: 202, 203) signal” value was found to be 1.28.

The record behind these values is patent US20260274955A1 (JANUX THERAPEUTICS, published 2026).
